Test results from the nanobody polyreactivity screen of Harvey et al. (2022).

test: yeast display, Sf9 membrane polyspecificity reagent, FACS + sequencing; frameworks hold sequencing errors
Outline: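 Galactose-induced (36–48 hours) yeast carrying a synthetic nanobody display library were exposed to 10% biotinylated, detergent-solubilized Sf9 membrane reagent at 4 °C for 1 hour. FACS followed streptavidin microbead enrichment, using low and high (top ~1%) gates for expression (anti-HA) and reagent binding (streptavidin). Colony PCR, MiSeq 2 × 250 sequencing and CDR-length filtering followed. Labels for polyreactivity reflect the gate of origin.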

Sequence	polyreactivity (PSR sort gate)
QVQLVESGGGLVQAGGSLRLSCAASGFTFRNYAMGWYRQAPGKERELVAAISKSGGSTYYADSVKGRFTISRDNAKNTVYFQMNSLKPEDSAVYYCATVYLYVYGFEYYYWGQGTQVTLSS	high polyreactivity
QVQLVESVGGLVQAGGSLRFSCAASGRIFKWYAMGWYRQAPGKEREFVAGIRWGGGRTHYADSVKGRFTISRDNAKNTVYLQMNSLKPEDTAVYYCAADNRGNTVYYRNYYWGQGTQVTVSS	high polyreactivity
QVQLVESGGGLVQAGGSLRLSCAASGRTFFRYVMGWYRQAPGKERELVAAISRSGGSTYYADSVKGRFTISRDNAKNTVYLQMNSLKPEDTAVYYCNTVARSTVVPTEFDYWGQGTQVTVSS	high polyreactivity
QVQLLESGGGLVQAGGSLRLSCAASGSTFDDYAMGWYRQAPGKEREFVAAIDWSGGSTYYADSVKGRFTISRDNAKNTVYLQMNSLKPEDTAVYYCNADPDGSFDYWGQGTQVTVSS	low polyreactivity
QVQLVESVGVLVQAGGSLRLSCAASGLIIDGYAMGWYRQAPGKERELVATITVSGTSTYYADSVKGRFTISRDNEKNTVYLQMNSLIPEDTAVYYCATDRNYGYYFVEYDHDYWGQGTQVTVSS	low polyreactivity
QVQLVESGGGLVQAGGSLRLSCAASGSTFRWNAMGWYRQAPGKERELVAAISNGGSTNYADSVKGRFTISRDNAKNSVYFQMNSLKPEDTAVYYCATDGWYGQHYYDYDFDYYYWGQGTQVTVSS	low polyreactivity
QVQLVESAGGLVQAGGSLRLSCDASGSILDSNAMGWYRQAHGKERELVAAITSGGSTYYADSVKGRFTISRDNAKNTVYLQMNSLKPEDTAVYYCAAVDIYKYYQYYAFPYYRYDSWGQGTQVTVSS	low polyreactivity
QVQLVESGGGLVQEGGSLRLSCSASGSIFYVYAMGRYRPARGKDRELVAAISSIDGNTYYADSVKGRFTISRDNAKNTVYLQMNSLKPEETAVYYCAAAYYNTDYYYWGKGTQVTVSS	low polyreactivity
QVQLVESGGGLVQAGGSLRLSCAASGLTFSRYAMGWYRQAPGKERELVAAISSSGTRTYYADSVKGRFTISPDNPKNTVYLQMNSLKPEDTAVYYCNAYYAPRGYGYWGQGTQVTVSS	high polyreactivity
QVQLVESGGGLVQAGGSLRLSCAASGSTCYSNAMGWYRQAPGNERELVAGISGSGGSTYYADSVKGRFTISRDNAKNTVYLHMNSLKPEDTAVYYCNARKTRSYFRFDSWGQGTQVTVSS	low polyreactivity
QVQLVESGGGLVQAGGSLRLSCAASGSTSARYAMGWYRQAPGKERELVATITRSGTTKYADSVKGRFTISRDNAKNTVYLQMNSLKPEDTAVYYCNSDTYFPLYDYWGQGTQVTVSS	low polyreactivity
QVQLVESGGGLVQAGGSLRLSCAASGFTFYLYAMGWYRQAPGKERELVAASTWSGGRTYYADSVKGRFTISRDNAKNTVYLQMNSLKPEDTADYYCAVDGFRGRSHGANDFWGQGTQVTVSS	high polyreactivity
QVQLVESGGGLVQAGGSLRLSCAASGSTFQLYAMGWYRQAPGKESELVASISWSGGSTYYADSVKGRFTISRDNAKNTVYLQMNSLKPEDTAVYYCAADSRLYLRDDYWGQGTQVTVSS	low polyreactivity
QVQLVESGGGLVQAGGSLRLSCAASGRTFSHYAMGWYRQAPGKERELVAAITWSGGRTYYADSVKGRFTISRDNAKNTVYLQMNSLKPEDTAVYYCAAGKYWPGNYWGQGTQVTVSS	high polyreactivity
QVQLQESGGGLVQAGGSLRLSCAASGYISDGYVMGWYRQAPGKEREFVATISGGTTAYYADSVKGRFTISRDNAKNTVYLQMNSLKPEDTAVYYCAAETSYYWDYDYWGHGTQVTVSS	high polyreactivity
QVQLVESGGGLVQAGGSLRLRCAASGYTLGPYAMGWYRPAPGKQRELVAAISWGGGRTYYADSVKGRFTISRDNAKNTVYLLMNSLKPEDTAVYYCAAKWSLVRDGPKYDYWGQGTQVTVSS	low polyreactivity
EVQLVESGGGLVQPGGSLRLSCASSGYIYRRYRMGRYRQAPGKGREFVAAISGGSSTNYADSVKGRFTISRDNSKNTLYLQMKSLRAEDTAVYYCEGYKIDSDPRVYWGQGTQVTVSS	low polyreactivity
QVQLVESGGGLVQAGGSLRLSCAASGGIFVQNAMGWYRQAPGKERELVAAITNGGSTYYADSVKGRFTISRDNAKNTVYLQMNSLKPEDTAVYYCAVDEYFIQDMDYWGQGTQVTVSS	low polyreactivity
QVQLVESAGGLVQAGGSLSLICAASGSTFVVNALGWYRQAPGKERELVAAITTSGGSTYYADSVKGRFTISRDNAKNTVYLQMNSLKPEDTAVYYCAAETWGYYGYGVDYDYWGQGTQVTVSS	high polyreactivity
QVQLVESGGGLVQAGGSLRLSCAASGRTFYRNAMGWYRQAPGKERELVASIRRNGGSTYYADSVKGRFTISRDNAKNTVYLQMNSLKPEDTAVYYCAARSTRRRIYGYWGQGSQVTVSS	high polyreactivity
QVQLVESGGGLVQAGGSLRVSCAASGRTFGYNAMGWYRQAPGKERELVATISWGGGSTYYADSVKVRFTISRDNAKNTVYLQMNSLKPEDTAVYYCAATYWTYPYHYQYKYDYWGQGTQVTVSS	high polyreactivity
QVQLVESGGGLVQAGGSLRLSCAASGRTFMRYAMGWYRQAPGKERELVAAISRGGGRTYYADSVKGRFTISRDNAKNTVYLQMNSLKPEDTAVYYCAADLSPEYDYWGQGTQVTVSS	high polyreactivity

Sequence	polyreactivity (PSR sort gate)
QVQLVESGGGLVQAGGSLRLSCAASGRTSKGNTMGWYRQAPGKEREFVATISRSGGSTYYADSVKGRFTISRDNAKNTVYLQMNSLKPEDTAVYYCAARISRQRSYSRDYWGQGTQVTVSS	high polyreactivity
QVQLVESGGGLVQAGGSLRLSCAASGIIFYGYAMGWYRQAPGKERELVAGISSGGSTYYADSVKGRFTISRDNAKNTVYLQMNSLKPEDTAVYYCNADGGYSYESTDHYGYDYWGQGTQVTVSS	low polyreactivity
QVQLVESGGGLVQAGGSLRLSCAASGLTFSGYVMGWYRQAPGKERELVAAISSSGGRTYYADSVKGRFTISRDNAKNTVYLQMNSLKPEDTAVYYCAARNKYGGYPYGYDYWGQGTQVTVSS	high polyreactivity
QVQLVESGGGLVQAGGSLRLSCAASGRTFAYYAMGWYRQAPGKERELVAAISSSGGITYYADSVKGRFTISRDNAKNTVYLQMNSLKPEDTAVYYCATPRARTRLRYYWGQGTQVTVSS	high polyreactivity
QVQLVESGGGLVQAGGSLRLSCAASGSIFGANTMGWYRQAPGKERELVAGITSGARTYYADSVKGRFTISRDNAKNTVYLQMNSLKPEDTAVYYCAADTWKVFGVDYWGQGTQVTVSS	high polyreactivity
QVQLVESGGGLVQAGGSLRLSCAASGYTFYVYAMGWYRQAPGKERELVAAIRSGGTTYYADSVKGRFTISRDNAKYTVYLQMNSLKPEDTAVYYCAADVQDRYHRAWYDYWGQGTQVTVSS	low polyreactivity
QVQLVESGGGLVQAGGSLRLSCAASGSIFPVYAMGWYRPAPGKERELVAAISLRAGNTYYADSVKGRFTISRDNAKNTVYLQMNSLKPEDTAVYDCAVELFRSTTIYDYWGQGTLVTVSS	high polyreactivity
QVQLVESGGGLVQAGGSLRLSCAASGFTFLPAYAMGWYRQAPGKERELVAAITRGGSTYYADSVKGRFTISRDNAKNTVYLQMNSLKPEDTAVYYCNADQKFGFYRSVGDDYWGQGTQVTVSS	low polyreactivity
QFQLVESGGGLVQAGGSLRLSCAASGSTFSANAMGWYRQAPGKERELVASISRRGGSTYYADSVKGRFTISRDIAKNTVYLQMNSLKPEDTAVYYCNKRFARQGSPSEYGRSQIGYYYWGQGTQVTVSS	high polyreactivity
QVQLVESGGGLVQAGGSLRLSCAASGLIFPTNAMGWYRQAPGKERELVAAISSVGSTYYADSVKGRFTISRDNAKNTVYLQMNSLKPEDTAVYYCAADWTLDPSYGYYADDYWGQGTQVTVSS	low polyreactivity
QVQLVESGGGLVQSGGSLRLSCAASGRTFYRYAMGWYRQAPGKERELVAAISYSTTRTYYADSVKGRFTISRDIAKNTVYLQMNSLKPEETAVYYCAAYGWSRFGYDYWGQGSQVTVSS	high polyreactivity
QVQLVESGGGLVQAGGSLRLSCAASGSTFPLYTRGWYRQAPGKERELVAAISGGSTTYYADSVKGRFTISRDNAKNTVYLQMNSLKPEDTAVYYCAAYAYTSRWYGFDYWGQGTQVTVSS	low polyreactivity
QVQLVESGGGLVQAGGSLRLSCAASGITVGDYAMGWYRQAPGKEREVVAAISYTGGSTYYADSVKGRFTISRDNAQNTGYLQMNSLKPEDTAVYYCAADGYRDYDSWGQGTQVTVSS	high polyreactivity
QVQLVESRGVLVQAGGSLRLSCAASGFTFDYNAMGWYRQAPGKERELVAVISSSGSRTYYADSVKGRFTISRDNAKNTVYLQMNSLKPVDTAVYYCARDNWQWYPSTWYDYWGQGTQVTVSS	high polyreactivity
QVQLVESGGGLVQAGGSLRLSCAASGSIFGDNVMGWYRPAPGKERELVAAISRSGGSTYYADSVKGRFTISRDNAKNTVYVEMNSLIPEDSSVYYCAARYWSWRSFKVDYWGQGTQVTVSS	high polyreactivity
QVQLVESGGGLGQAGGSLRLSCAASGRTFYYNAMGWYRQAPGKERELVAAITRSGGRTYYADSVKGRFTISRDTAKNTVYLQMNSLKPEDTAVYYCAARWSSYYSSMDYWGQGSQVTVSS	high polyreactivity
QVQLVESGGGLVQAGGSLRLSCDASGRIFDANVMGWYRQAPGKERELVAAISSGGRTKYADSVKGRFTISRDNAKNTVYLQMNSLKPEDTAVYYCNADYRNDWGTPLWYAYNYWGQGTQVTVSS	low polyreactivity
QVQLVESGGGLVQAGCSLRLSCAASGRTFGVYAMGWYRQAPGKERELVAGIRWRGGSTYYADSVKGRFTISRDNAKNTVYLQMNSLKPEDTAVYYCAADVYLVKYDYWGQGTQVTVSS	low polyreactivity
QVQLVESGGGLVQAGGSLRLSCAASGSTFSPYAMGWYRQAPGKERELVAGITGNGGSTRYADSVKGRFTISRDNAKNTVYLQMNSLKPEDTAVYYCAARWTRQRYRTSYYSWGQGTQVTVSS	high polyreactivity
QVQLVESGGGLVQAGGSLRLSCAASGSTFSGYAMGWYRQAPGKERELVAAINWNGGRTYYADSVKGRFTISRDNAKNTVYLQMYSLKPADTAVSYCNKQSPRGRSAVYKYDYWGQGTQVTVSS	high polyreactivity
QVQLVESGGGLVQAGGSLRLSCAASGSILASYAMGWYRPAPGKERELVAAISWNGARSYYADSVKGRFTISRDNAKNTVYLQMNSLKPEDTAVYYCAGVRVGRTTFDYWGQGTQVTVSS	low polyreactivity
